# Results: the supplement of paper PMC9112550, “Optimization of the antimicrobial peptide Bac7 by deep mutational scanning” (BMC Biology, 2022)
# Tested on: Escherichia coli TOP10
# Experiment: shrunken log2 fold change of peptide-encoding DNA abundance (4.5 h post-induction vs induction); higher = less antimicrobial activity (less host growth inhibition)
# Settings: time post-induction: 4.5 h; library: site-saturation at positions 5, 18, 19, 20
# 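Further: peptides expressed intracellularly from a pBAD plasmid library in pooled LB shake-flask culture, induced with 0.3% L-arabinose, DNA abundance read by NGS, three biological replicates, DESeq2 with apeglm shrinkage.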
row,Sequence,shrunken log2 fold change
1,RRIRSRPPRLPRPRPRPYMEPRP,2.73
2,RRIRWRPPRLPRPRPRPIIVPRP,-0.138
3,RRIRARPPRLPRPRPRPQADPRP,-0.119
4,RRIRNRPPRLPRPRPRPQNWPRP,-0.146
5,RRIRGRPPRLPRPRPRPMYLPRP,0.0702
6,RRIRCRPPRLPRPRPRPFNMPRP,-0.052
7,RRIRVRPPRLPRPRPRPEVYPRP,-0.0457
8,RRIRLRPPRLPRPRPRPTDGPRP,-0.0875
9,RRIRLRPPRLPRPRPRPCNYPRP,-0.593
10,RRIRNRPPRLPRPRPRPDSMPRP,-0.0386
11,RRIRCRPPRLPRPRPRPAPCPRP,0.122
12,RRIRVRPPRLPRPRPRPPTIPRP,0.0741
13,RRIRDRPPRLPRPRPRPCDYPRP,-0.0874
14,RRIRYRPPRLPRPRPRPPNFPRP,0.0401
15,RRIRRRPPRLPRPRPRPHSIPRP,0.052
16,RRIRQRPPRLPRPRPRPRCHPRP,0.118
17,RRIRYRPPRLPRPRPRPYLIPRP,-0.554
18,RRIRIRPPRLPRPRPRPWEQPRP,0.107
19,RRIRWRPPRLPRPRPRPFTAPRP,-0.0343
20,RRIRVRPPRLPRPRPRPTPWPRP,0.294
21,RRIRNRPPRLPRPRPRPVYRPRP,-0.815
22,RRIRNRPPRLPRPRPRPWMQPRP,-0.218
23,RRIRARPPRLPRPRPRPVCSPRP,0.665
24,RRIRHRPPRLPRPRPRPLTYPRP,-0.402
25,RRIRQRPPRLPRPRPRPECVPRP,0.386

row,Sequence,shrunken log2 fold change
1,RRIRLRPPRLPRPRPRPMGFPRP,-0.159
2,RRIRRRPPRLPRPRPRPNKAPRP,0.158
3,RRIRYRPPRLPRPRPRPCTQPRP,-1.32
4,RRIRSRPPRLPRPRPRPMMLPRP,0.15
5,RRIRERPPRLPRPRPRPNCNPRP,-0.848
6,RRIRFRPPRLPRPRPRPMNDPRP,-0.122
7,RRIRARPPRLPRPRPRPRPLPRP,0.707
8,RRIRIRPPRLPRPRPRPIPQPRP,-0.14
9,RRIRLRPPRLPRPRPRPHFCPRP,0.0717
10,RRIRFRPPRLPRPRPRPMPSPRP,0.0917
11,RRIRRRPPRLPRPRPRPTNYPRP,-0.0945
12,RRIRLRPPRLPRPRPRPPALPRP,0.696
13,RRIRWRPPRLPRPRPRPPPEPRP,0.822
14,RRIRERPPRLPRPRPRPTFDPRP,-0.066
15,RRIRRRPPRLPRPRPRPFGQPRP,-0.336
16,RRIRCRPPRLPRPRPRPKLVPRP,-0.152
17,RRIRCRPPRLPRPRPRPIHQPRP,-0.304
18,RRIRIRPPRLPRPRPRPIGHPRP,-0.0672
19,RRIRPRPPRLPRPRPRPNTEPRP,-0.124
20,RRIRPRPPRLPRPRPRPMRRPRP,0.537
21,RRIRMRPPRLPRPRPRPEYLPRP,-0.082
22,RRIRKRPPRLPRPRPRPTVHPRP,0.467
23,RRIRSRPPRLPRPRPRPYYYPRP,-0.507
24,RRIRCRPPRLPRPRPRPHGQPRP,0.0389
25,RRIRVRPPRLPRPRPRPNVPPRP,-0.345

row,Sequence,shrunken log2 fold change
1,RRIRCRPPRLPRPRPRPCTCPRP,-0.583
2,RRIRARPPRLPRPRPRPNNHPRP,-0.381
3,RRIRIRPPRLPRPRPRPDYIPRP,-0.183
4,RRIRSRPPRLPRPRPRPQMYPRP,-0.159
5,RRIRGRPPRLPRPRPRPCYQPRP,0.219
6,RRIRLRPPRLPRPRPRPFDQPRP,0.0721
7,RRIRVRPPRLPRPRPRPNMVPRP,-0.201
8,RRIRVRPPRLPRPRPRPIAWPRP,0.468
9,RRIRFRPPRLPRPRPRPTETPRP,-0.0161
10,RRIRFRPPRLPRPRPRPGPFPRP,0.14
11,RRIRARPPRLPRPRPRPFGFPRP,0.261
12,RRIRDRPPRLPRPRPRPMSPPRP,0.0807
13,RRIRCRPPRLPRPRPRPIFAPRP,0.373
14,RRIRIRPPRLPRPRPRPMWDPRP,0.205
15,RRIRERPPRLPRPRPRPRPMPRP,-0.0942
16,RRIRARPPRLPRPRPRPHWKPRP,-0.00664
17,RRIRCRPPRLPRPRPRPPHHPRP,0.352
18,RRIRERPPRLPRPRPRPGMCPRP,0.248
19,RRIRWRPPRLPRPRPRPKQPPRP,0.334
20,RRIRPRPPRLPRPRPRPLDGPRP,0.0208
21,RRIRKRPPRLPRPRPRPGLSPRP,0.0644
22,RRIRNRPPRLPRPRPRPQENPRP,-0.151
23,RRIRVRPPRLPRPRPRPVRLPRP,0.44
24,RRIRGRPPRLPRPRPRPFGTPRP,0.196
25,RRIRIRPPRLPRPRPRPGYSPRP,-0.525

row,Sequence,shrunken log2 fold change
1,RRIRFRPPRLPRPRPRPPGFPRP,0.268
2,RRIRVRPPRLPRPRPRPGDEPRP,0.122
3,RRIRPRPPRLPRPRPRPCNHPRP,-0.227
4,RRIRRRPPRLPRPRPRPILSPRP,0.246
5,RRIRERPPRLPRPRPRPRCIPRP,-0.425
6,RRIRARPPRLPRPRPRPYYQPRP,-0.374
7,RRIRLRPPRLPRPRPRPQCMPRP,0.0865
8,RRIRCRPPRLPRPRPRPKFAPRP,0.0822
9,RRIRCRPPRLPRPRPRPGQDPRP,-0.0365
10,RRIRQRPPRLPRPRPRPQNQPRP,-0.17
11,RRIRNRPPRLPRPRPRPHRHPRP,-0.222
12,RRIRMRPPRLPRPRPRPAVAPRP,1.04
13,RRIRNRPPRLPRPRPRPPIGPRP,0.106
14,RRIRQRPPRLPRPRPRPAFIPRP,-0.239
15,RRIRQRPPRLPRPRPRPCTTPRP,-0.104
16,RRIRERPPRLPRPRPRPEKCPRP,-0.00149
17,RRIRMRPPRLPRPRPRPNQSPRP,0.176
18,RRIRNRPPRLPRPRPRPTHPPRP,-0.235
19,RRIRKRPPRLPRPRPRPKLEPRP,-0.0306
20,RRIRQRPPRLPRPRPRPLQFPRP,-0.168
21,RRIRVRPPRLPRPRPRPNKPPRP,-0.0479
22,RRIRKRPPRLPRPRPRPCHIPRP,-0.00879
23,RRIRKRPPRLPRPRPRPVDCPRP,-0.248
24,RRIRYRPPRLPRPRPRPIYSPRP,-0.143
25,RRIRIRPPRLPRPRPRPTSVPRP,-0.18

row,Sequence,shrunken log2 fold change
1,RRIRCRPPRLPRPRPRPMEDPRP,-0.0146
2,RRIRKRPPRLPRPRPRPFRYPRP,-0.0832
3,RRIRNRPPRLPRPRPRPKYPPRP,-0.137
4,RRIRYRPPRLPRPRPRPVPPPRP,0.208
5,RRIRPRPPRLPRPRPRPFTLPRP,-0.379
6,RRIRWRPPRLPRPRPRPHSLPRP,-0.262
7,RRIRCRPPRLPRPRPRPGAQPRP,0.312
8,RRIRWRPPRLPRPRPRPCLFPRP,-0.00127
9,RRIRMRPPRLPRPRPRPHCSPRP,0.183
10,RRIRYRPPRLPRPRPRPKLKPRP,-0.0928
11,RRIRQRPPRLPRPRPRPFYTPRP,-0.589
12,RRIRFRPPRLPRPRPRPFRDPRP,-0.276
13,RRIRKRPPRLPRPRPRPREWPRP,1.77
14,RRIRYRPPRLPRPRPRPNSKPRP,-0.875
15,RRIRFRPPRLPRPRPRPYHYPRP,-0.521
16,RRIRRRPPRLPRPRPRPERTPRP,0.232
17,RRIRWRPPRLPRPRPRPEFEPRP,0.0113
18,RRIRARPPRLPRPRPRPCVMPRP,-0.0813
19,RRIRARPPRLPRPRPRPTVAPRP,0.779
20,RRIRTRPPRLPRPRPRPDETPRP,0.0482
21,RRIRMRPPRLPRPRPRPNMPPRP,-0.286
22,RRIRYRPPRLPRPRPRPACIPRP,-0.389
23,RRIRERPPRLPRPRPRPVFAPRP,0.181
24,RRIRARPPRLPRPRPRPYPSPRP,-0.0433
25,RRIRWRPPRLPRPRPRPCCGPRP,0.293

row,Sequence,shrunken log2 fold change
1,RRIRNRPPRLPRPRPRPNAYPRP,-0.0738
2,RRIRNRPPRLPRPRPRPWECPRP,-0.00145
3,RRIRQRPPRLPRPRPRPHNCPRP,0.113
4,RRIRDRPPRLPRPRPRPIQYPRP,-0.0088
5,RRIRNRPPRLPRPRPRPKEIPRP,0.0136
6,RRIRWRPPRLPRPRPRPQTEPRP,0.0468
7,RRIRYRPPRLPRPRPRPGPDPRP,0.184
8,RRIRDRPPRLPRPRPRPKKAPRP,0.0426
9,RRIRIRPPRLPRPRPRPGQEPRP,-0.00674
10,RRIRLRPPRLPRPRPRPQNFPRP,0.0254
11,RRIRMRPPRLPRPRPRPLKLPRP,0.0525
12,RRIRLRPPRLPRPRPRPCAWPRP,-0.005
13,RRIRHRPPRLPRPRPRPGTTPRP,-0.221
14,RRIRPRPPRLPRPRPRPPRVPRP,0.447
15,RRIRGRPPRLPRPRPRPPIHPRP,0.108
16,RRIRPRPPRLPRPRPRPGDEPRP,0.156
17,RRIRFRPPRLPRPRPRPTNWPRP,0.426
18,RRIRYRPPRLPRPRPRPSPRPRP,0.062
19,RRIRKRPPRLPRPRPRPKGQPRP,0.00959
20,RRIRIRPPRLPRPRPRPRLPPRP,0.161
21,RRIRIRPPRLPRPRPRPNGDPRP,8.33e-05
22,RRIRPRPPRLPRPRPRPPEFPRP,-0.122
23,RRIRHRPPRLPRPRPRPHHQPRP,-0.364
24,RRIRNRPPRLPRPRPRPMLNPRP,-0.21
25,RRIRMRPPRLPRPRPRPDSSPRP,0.0874
